Experimental data published in IntAct's records for PubMed 25910212.

B1: EF-hand domain-containing protein 1 (Homo sapiens), Q5JVL4 (parent)
chain: MVSNPVHGLPFLPGTSFKDSTKTAFHRSQTLSYRNGYAIVRRPTVGIGGDRLQFNQLSQAELDELASKAPVLTYGQPKQAPPADFIPAHVAFDKKVLKFDAYFQEDVPMSTEEQYRIRQVNIYYYLEDDSMSVIEPVVENSGILQGKLIKRQRLAKNDRGDHYHWKDLNRGINITIYGKTFRVVDCDQFTQVFLESQGIELNPPEKMALDPYTELRKQPLRKYVTPSDFDQLKQFLTFDKQVLRFYAIWDDTDSMYGECRTYIIHYYLMDDTVEIREVHERNDGRDPFPLLMNRQRVPKVLVENAKNFPQCVLEISDQEVLEWYTAKDFIVGKSLTILGRTFFIYDCDPFTRRYYKEKFGITDLPRIDVSKREPPPVKQELPPYNGFGLVEDSAQNCFALIPKAPKKDVIKMLVNDNKVLRYLAVLESPIPEDKDRRFVFSYFLATDMISIFEPPVRNSGIIGGKYLGRTKVVKPYSTVDNPVYYGPSDFFIGAVIEVFGHRFIILDTDEYVLKYMESNAAQYSPEALASIQNHVRKREAPAPEAESKQTEKDPGVQELEALIDTIQKQLKDHSCKDNIREAFQIYDKEASGYVDRDMFFKICESLNVPVDDSLVKELIRMCSHGEGKINYYNFVRAFSN
partner: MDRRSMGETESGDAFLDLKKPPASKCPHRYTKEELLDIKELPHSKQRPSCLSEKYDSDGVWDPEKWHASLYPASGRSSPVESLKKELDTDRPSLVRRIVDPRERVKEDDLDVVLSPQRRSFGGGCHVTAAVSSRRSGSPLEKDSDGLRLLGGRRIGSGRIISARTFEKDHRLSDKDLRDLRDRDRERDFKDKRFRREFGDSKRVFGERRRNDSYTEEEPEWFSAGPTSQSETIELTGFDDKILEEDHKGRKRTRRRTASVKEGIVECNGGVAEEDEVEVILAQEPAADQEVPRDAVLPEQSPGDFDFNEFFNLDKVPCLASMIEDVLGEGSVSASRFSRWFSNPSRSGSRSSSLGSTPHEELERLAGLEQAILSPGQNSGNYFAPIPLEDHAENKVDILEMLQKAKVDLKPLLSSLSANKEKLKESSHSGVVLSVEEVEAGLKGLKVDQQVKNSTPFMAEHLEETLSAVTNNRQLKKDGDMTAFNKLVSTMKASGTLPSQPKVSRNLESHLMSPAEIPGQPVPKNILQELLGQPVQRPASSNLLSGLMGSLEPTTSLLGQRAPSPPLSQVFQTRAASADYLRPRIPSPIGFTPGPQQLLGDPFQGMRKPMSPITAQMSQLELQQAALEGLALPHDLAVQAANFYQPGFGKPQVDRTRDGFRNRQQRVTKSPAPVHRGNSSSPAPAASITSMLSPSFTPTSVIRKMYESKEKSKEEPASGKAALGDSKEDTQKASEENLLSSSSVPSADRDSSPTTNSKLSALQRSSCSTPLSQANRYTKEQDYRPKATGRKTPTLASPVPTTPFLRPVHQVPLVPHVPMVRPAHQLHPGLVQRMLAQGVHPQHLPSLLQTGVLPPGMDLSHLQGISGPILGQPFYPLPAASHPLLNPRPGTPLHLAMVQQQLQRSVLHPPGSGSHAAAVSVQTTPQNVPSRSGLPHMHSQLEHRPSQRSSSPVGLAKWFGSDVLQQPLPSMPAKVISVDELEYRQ
B2: Hypoxanthine-guanine phosphoribosyltransferase (Homo sapiens), P00492 (parent)
chain: MATRSPGVVISDDEPGYDLDLFCIPNHYAEDLERVFIPHGLIMDRTERLARDVMKEMGGHHIVALCVLKGGYKFFADLLDYIKALNRNSDRSIPMTVDFIRLKSYCNDQSTGDIKVIGGDDLSTLTGKNVLIVEDIIDTGKTMQTLLSLVRQYNPKMVKVASLLVKRTPRSVGYKPDFVGFEIPDKFVVGYALDYNEYFRDLNHVCVISETGKAKYKA
partner: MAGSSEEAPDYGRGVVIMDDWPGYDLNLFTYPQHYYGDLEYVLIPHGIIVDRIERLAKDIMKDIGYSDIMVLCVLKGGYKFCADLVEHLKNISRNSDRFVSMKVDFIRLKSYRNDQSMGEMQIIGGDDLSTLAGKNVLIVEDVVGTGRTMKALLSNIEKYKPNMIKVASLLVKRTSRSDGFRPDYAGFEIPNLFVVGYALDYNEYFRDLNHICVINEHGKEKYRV
B3: Multifunctional procollagen lysine hydroxylase and glycosyltransferase LH3 (Homo sapiens), O60568 (parent)
chain: MTSSGPGPRFLLLLPLLLPPAASASDRPRGRDPVNPEKLLVITVATAETEGYLRFLRSAEFFNYTVRTLGLGEEWRGGDVARTVGGGQKVRWLKKEMEKYADREDMIIMFVDSYDVILAGSPTELLKKFVQSGSRLLFSAESFCWPEWGLAEQYPEVGTGKRFLNSGGFIGFATTIHQIVRQWKYKDDDDDQLFYTRLYLDPGLREKLSLNLDHKSRIFQNLNGALDEVVLKFDRNRVRIRNVAYDTLPIVVHGNGPTKLQLNYLGNYVPNGWTPEGGCGFCNQDRRTLPGGQPPPRVFLAVFVEQPTPFLPRFLQRLLLLDYPPDRVTLFLHNNEVFHEPHIADSWPQLQDHFSAVKLVGPEEALSPGEARDMAMDLCRQDPECEFYFSLDADAVLTNLQTLRILIEENRKVIAPMLSRHGKLWSNFWGALSPDEYYARSEDYVELVQRKRVGVWNVPYISQAYVIRGDTLRMELPQRDVFSGSDTDPDMAFCKSFRDKGIFLHLSNQHEFGRLLATSRYDTEHLHPDLWQIFDNPVDWKEQYIHENYSRALEGEGIVEQPCPDVYWFPLLSEQMCDELVAEMEHYGQWSGGRHEDSRLAGGYENVPTVDIHMKQVGYEDQWLQLLRTYVGPMTESLFPGYHTKARAVMNFVVRYRPDEQPSLRPHHDSSTFTLNVALNHKGLDYEGGGCRFLRYDCVISSPRKGWALLHPGRLTHYHEGLPTTWGTRYIMVSFVDP
B4: Carbonic anhydrase-related protein (Homo sapiens), P35219 (parent)
chain: MADLSFIEDTVAFPEKEEDEEEEEEGVEWGYEEGVEWGLVFPDANGEYQSPINLNSREARYDPSLLDVRLSPNYVVCRDCEVTNDGHTIQVILKSKSVLSGGPLPQGHEFELYEVRFHWGRENQRGSEHTVNFKAFPMELHLIHWNSTLFGSIDEAVGKPHGIAIIALFVQIGKEHVGLKAVTEILQDIQYKGKSKTIPCFNPNTLLPDPLLRDYWVYEGSLTIPPCSEGVTWILFRYPLTISQLQIEEFRRLRTHVKGAELVEGCDGILGDNFRPTQPLSDRVIRAAFQ
partner: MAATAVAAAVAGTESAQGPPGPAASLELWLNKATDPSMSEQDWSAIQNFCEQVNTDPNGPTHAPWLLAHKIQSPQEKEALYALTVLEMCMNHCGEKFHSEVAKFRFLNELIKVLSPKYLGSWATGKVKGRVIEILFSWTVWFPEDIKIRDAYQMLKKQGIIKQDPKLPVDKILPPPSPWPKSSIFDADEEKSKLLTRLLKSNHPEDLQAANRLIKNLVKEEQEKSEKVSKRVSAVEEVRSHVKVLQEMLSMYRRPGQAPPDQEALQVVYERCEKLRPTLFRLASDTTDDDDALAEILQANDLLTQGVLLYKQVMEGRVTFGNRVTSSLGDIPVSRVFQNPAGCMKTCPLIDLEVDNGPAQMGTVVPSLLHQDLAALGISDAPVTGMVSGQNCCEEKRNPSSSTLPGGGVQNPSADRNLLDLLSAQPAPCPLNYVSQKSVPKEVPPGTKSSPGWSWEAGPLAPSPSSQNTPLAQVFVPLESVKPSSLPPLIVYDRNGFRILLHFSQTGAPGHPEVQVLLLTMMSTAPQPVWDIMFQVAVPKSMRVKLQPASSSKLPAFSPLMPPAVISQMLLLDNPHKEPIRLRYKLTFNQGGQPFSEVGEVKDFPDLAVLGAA
B5: Chorion-specific transcription factor GCMb (Homo sapiens), O75603 (parent)
chain: MPAAAVQEAVGVCSYGMQLSWDINDPQMPQELALFDQFREWPDGYVRFIYSSDEKKAQRHLSGWAMRNTNNHNGHILKKSCLGVVVCTQACTLPDGSRLQLRPAICDKARLKQQKKACPNCHSALELIPCRGHSGYPVTNFWRLDGNAIFFQAKGVHDHPRPESKSETEARRSAIKRQMASFYQPQKKRIRESEAEENQDSSGHFSNIPPLENPEDFDIVTETSFPIPGQPCPSFPKSDVYKATCDLATFQGDKMPPFQKYSSPRIYLPRPPCSYELANPGYTNSSPYPTLYKDSTSIPNDTDWVHLNTLQCNVNSYSSYERSFDFTNKQHGWKPALGKPSLVERTNHGQFQAMATRPYYNPELPCRYLTTPPPGAPALQTVITTTTKVSYQAYQPPAMKYSDSVREVKSLSSCNYAPEDTGMSVYPEPWGPPVTVTRAASPSGPPPMKIAGDCRAIRPTVAIPHEPVSSRTDEAETWDVCLSGLGSAVSYSDRVGPFFTYNNEDF

Variants of: B1
Details: with 4et_human EIF4ENIF1, Q9NRA8

| Variant | effect of a mutation on the interaction |
| --- | --- |
| T508R | disrupting interaction strength |
| P77T | disrupting interaction strength |

Variants of: B2
Details: with prdc1_human PRTFDC1, Q9NRG1

| Variant | effect of a mutation on the interaction |
| --- | --- |
| D194H | disrupting interaction strength |

Variants of: B3
Details: with ehmt2_human EHMT2, Q96KQ7
Sequence of ehmt2_human EHMT2, Q96KQ7 (Q96KQ7 whole entry): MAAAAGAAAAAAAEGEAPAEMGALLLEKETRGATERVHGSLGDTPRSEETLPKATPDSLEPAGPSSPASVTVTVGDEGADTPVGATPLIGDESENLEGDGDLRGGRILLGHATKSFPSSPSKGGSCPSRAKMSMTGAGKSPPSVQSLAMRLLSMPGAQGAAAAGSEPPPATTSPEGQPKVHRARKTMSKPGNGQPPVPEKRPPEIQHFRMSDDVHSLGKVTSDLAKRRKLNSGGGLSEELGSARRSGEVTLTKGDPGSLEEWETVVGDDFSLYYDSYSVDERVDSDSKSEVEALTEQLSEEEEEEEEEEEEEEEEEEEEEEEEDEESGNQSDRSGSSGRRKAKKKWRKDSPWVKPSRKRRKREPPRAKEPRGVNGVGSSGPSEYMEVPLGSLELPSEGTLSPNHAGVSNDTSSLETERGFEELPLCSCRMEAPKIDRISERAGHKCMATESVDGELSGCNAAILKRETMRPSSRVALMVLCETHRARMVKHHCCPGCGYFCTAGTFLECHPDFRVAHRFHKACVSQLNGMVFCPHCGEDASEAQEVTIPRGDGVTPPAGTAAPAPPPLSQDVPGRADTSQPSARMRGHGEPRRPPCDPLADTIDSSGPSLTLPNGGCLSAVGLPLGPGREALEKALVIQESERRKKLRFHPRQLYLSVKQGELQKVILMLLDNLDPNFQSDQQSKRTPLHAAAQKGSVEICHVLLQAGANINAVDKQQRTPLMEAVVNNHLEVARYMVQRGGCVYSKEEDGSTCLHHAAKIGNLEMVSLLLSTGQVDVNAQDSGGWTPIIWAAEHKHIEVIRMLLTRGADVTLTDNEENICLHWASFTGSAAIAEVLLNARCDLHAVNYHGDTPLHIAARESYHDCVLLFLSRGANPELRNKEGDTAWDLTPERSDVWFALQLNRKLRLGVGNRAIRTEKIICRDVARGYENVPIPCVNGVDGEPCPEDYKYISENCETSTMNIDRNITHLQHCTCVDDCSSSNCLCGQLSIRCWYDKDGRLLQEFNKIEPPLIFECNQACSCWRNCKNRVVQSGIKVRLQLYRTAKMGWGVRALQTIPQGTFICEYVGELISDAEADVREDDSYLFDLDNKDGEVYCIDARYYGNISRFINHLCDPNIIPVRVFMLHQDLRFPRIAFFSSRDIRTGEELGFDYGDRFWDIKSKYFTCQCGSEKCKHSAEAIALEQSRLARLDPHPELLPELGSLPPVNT

| Variant | effect of a mutation on the interaction |
| --- | --- |
| N223S | with no effect |

Variants of: B4
Details: with gga2_human GGA2, Q9UJY4

| Variant | effect of a mutation on the interaction |
| --- | --- |
| S100P | disrupting interaction strength |

Variants of: B5
Details: with crx_human CRX

| Variant | effect of a mutation on the interaction |
| --- | --- |
| G203S | with no effect |
| G63S | with no effect |
| R47L | with no effect |

Variants of: B5
Details: with RBPMS

| Variant | effect of a mutation on the interaction |
| --- | --- |
| G203S | with no effect |
| G63S | disrupting interaction strength |
| R47L | with no effect |
